Results: publication PMC5683654, “Interaction between the flagellar pocket collar and the hook complex via a novel microtubule-binding protein in Trypanosoma brucei” (PLoS Pathogens, 2017)

Assays:
[1] = molecular target: BILBO1-Edge-Mut (K60A/K62A), bacterially expressed BILBO1-NTD’ (Trypanosoma brucei); experiment: ITC; 25°C, 20 mM Tris-HCl pH 8.0, 50 mM NaCl; 50 μM BILBO1-NTD’ in the cell titrated with 600 μM FPC4-B1BD; one-site binding model
[2] = molecular target: taxol-stabilised microtubules (polymerised tubulin); experiment: co-sedimentation; microtubule binding assay; increasing concentrations of FPC4 fragment with 7.2 μM polymerised tubulin in PEMD, 1 h at 22°C, 16,100 g; pellets and supernatants on SDS-PAGE
BILBO1-NTD’ (aa 1–120) [3] = molecular target: T1, BILBO1-NTD’ (aa 1–120) (Trypanosoma brucei, UniProt Q382W6 1-120); experiment: ITC; 25°C, 20 mM Tris-HCl pH 8.0, 50 mM NaCl; 50 μM BILBO1-NTD’ in the cell titrated with 600 μM FPC4-B1BD; one-site binding model; details: both partners purified
T1 construct: BILBO1 of Trypanosoma brucei, Tb927.11.12150, aa 1-120, cloned into pET-15b; also called TbBILBO1-NTD’; 6His-BILBO1-NTD’; source: E. coli, purified (Ni-HiTrap, tag removed with thrombin, Superdex-200); not shown: His6, N-terminal, cleaved
T1 sequence (looked up): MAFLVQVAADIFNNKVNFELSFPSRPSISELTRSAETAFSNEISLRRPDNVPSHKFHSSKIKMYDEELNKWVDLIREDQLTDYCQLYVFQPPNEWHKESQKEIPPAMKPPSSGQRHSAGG

BILBO1-NTD’ (aa 1–120) [4] = molecular target: T1, BILBO1-NTD’ (aa 1–120); experiment: SEC-MALS; static light scattering on Superdex 200 10/300 GL; purified proteins mixed at molar ratio ~1:2, total 2 mg/ml, 30 min at room temperature; details: both partners purified
FPC4-B1BD (aa 357–440) = molecular target: T2, FPC4-B1BD (aa 357–440) (Trypanosoma brucei, UniProt Q57YN8 357-440); experiment: ITC
T2 chain: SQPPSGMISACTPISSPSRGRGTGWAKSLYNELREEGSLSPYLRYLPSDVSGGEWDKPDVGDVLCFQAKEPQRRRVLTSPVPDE

Molecule: FPC4-B1BD (aa 357–440) (from UniProt Q57YN8 357-440) (domain or fragment)
- Kd [1]: 18 µM

Molecule: FPC4-1-260-6His (domain or fragment)
- saturating concentration [2]: 5.6 µM

B1: FPC4-B1BD (aa 357–440) (domain or fragment, Trypanosoma brucei, UniProt Q57YN8 357-440, looked up)
chain: T2 chain
notes: FPC4 of Trypanosoma brucei, Tb927.8.6370, aa 357-440, cloned into the custom vector MalpET; also called TbFPC4-B1BD; MBP-tagged FPC4-B1BD; source: E. coli, purified (Ni-HiTrap, tag removed with TEV, Superdex-200); not shown: MBP, N-terminal, cleaved; His10, N-terminal, cleaved
- Kd (BILBO1-NTD’ (aa 1–120) [3]): ~5 µM
- stoichiometry N (BILBO1-NTD’ (aa 1–120) [4]): 1

B2: BILBO1-NTD’ (aa 1–120) (domain or fragment)
chain: T1 sequence (looked up)
- Kd (FPC4-B1BD (aa 357–440)): 5.4 µM
